The text below walks through data of patent US12559745B2, “Methods and compositions for linking RNA stem loops” (THE REGENTS OF THE UNIVERSITY OF CALIFORNIA, priority 2020, dated 2026).

A short description of data set [1]: In vitro photo-cleavage (uncaging) assay, LED irradiation followed by denaturing PAGE. Format: physicochemical.
Data set [2] relates to 60 bp DNA substrate containing the sgRNA-9 target sequence. Put plainly: In vitro binding assay, Cas9-sgRNA-DNA ternary complex formation (native PAGE). The following applies: pre-formed RNP plus 20 nM DNA substrate, 37° C., 90 seconds; 5% native TBE-PAGE.
In a further data set the test system is DYRK1A genome locus. Put plainly: CRISPR-Cas9 gene editing in Cas9-expressing HEK-293 cells, INDEL rate by Sanger sequencing / ICE tool. It is filed as cell-based. As to conditions: for gene editing activity (INDEL rate) of unmodified sgRNA: unmodified (linear) sgRNA with Tag sequence(s), transfected into Cas9-expressing HEK-293 cells, compared with wild-type sgRNA. From the text: We asked whether RNA-CLAMP could be used to control CRISPR-Cas9 editing via cyclization of the sgRNA. The sgRNA is highly structured when in complex with dCas9 and target DNA, forming three stem loops and one tetraloop, with some of the stem loops being tolerant to mutations.^[18] A sgRNA contains four stem-loops and two free ends (FIGS. 3A and 3B). We screened the 17-nt Tag recognition sequence (GCAGACUGUAAAUCUGC) (SEQ ID NO:1) at all 6 potential labeling sites within the sgRNA: insertion at the 5′-end (sgRNA-1) or 3′-end (sgRNA-6) and substituting the 17-nt Tag stem loop for either the tetra loop (sgRNA-2), stem loop 1 (sgRNA-3), stem loop 2 (sgRNA-4) or stem loop 3 (sgRNA-5) (FIG. 12). All the sgRNAs target the DYRK1A genome locus.^[32] To screen for activity, we transiently transfected the sgRNAs into HEK-293 cells stably expressing Cas9 protein. Three days after transfection, genomic DNA was harvested and the sgRNA targeted region was amplified by PCR. Sanger sequencing results were analyzed using the ICE tool to determine the INDEL rate, which is representative of the gene editing efficiency of the sgRNA.^[33]
To obtain optimal gene editing efficiency, we examined different Cas9 delivery approaches, including transfection or electroporation of Cas9 vector or mRNA, electroporation of Cas9-sgRNA RNP complex and sequential transfection of Cas9-mRNA and sgRNA. The gene editing efficiency varies from 20% INDEL to 80% INDEL with different delivery strategies. We constructed an engineered mammalian single-colony HEK-293 cell line that stably expresses Cas9 enzyme using the lentiviral approach. To quantify the activity of sgRNA, we delivered sgRNA1 to sgRNA6 into the HEK-293-Cas9 cells using lipofectamine RNAiMAX. One day after transfection, culturing medium was exchanged with fresh full-growth medium (DMEM with 10% FBS). Three days after transfection, genomic DNA was extracted from the cells, following by PCR amplification of the sgRNA targeted region. The PCR amplified DNA fragments were further analyzed by either the T7E1 nuclease digestion assay or by Sanger sequencing to quantify gene knockouts efficiency of the targeted region.^25,26 […]
Gene editing experiments were performed following previously reported protocols.^[2] For gene editing experiments using HEK-293-Cas9 cell line, 250 ng sgRNA and 0.5 μL Lipofectamine RNAiMAX were used to form the Lipo-RNA complex. The formed complex was added with 150 μL DMEM (10% FBS) containing 40K HEK-293-Cas9 cells. The transfection was performed in a 96-well plate format. 24 hours after transfection, cell medium was changed to complete DMEM medium. At day 4, genomic DNA was extracted using 80 μL QuickExtract™ DNA Extraction Solution (Lucigen, catalog number: QE09050). Following the manufacturer's protocol, the extraction solution was heated at 65° C. for 15 minutes and then at 95° C. for another 15 minutes. The resulting solution was diluted using water at a 1:10 ratio. The diluted product was directly used as a template for PCR amplification of the genomic region. For PCR amplification of the genomic region, Q5 HOTSTART HIFI DNA polymerase 2× master mix was used following the manufacturer's protocol without further optimization. The primers used for amplifying the DYRK1A and GRIN2B genome locus are listed below.
Crude PCR products were column purified using a Zymo DNA purification kit. The purified PCR amplicon was analyzed by Sanger sequencing to estimate INDEL % using the ICE tool.^[3] The wt-sgRNA gene editing INDEL % was usually around 70-80% following this protocol.

In the next data set the test system is HEK-293 cells. Put plainly: Gene editing in HEK-293 wild-type cell line with Cas9 mRNA transfected one day before sgRNA. It is filed as cell-based. As to conditions: HEK-293 wild-type cells, Cas9 mRNA transfection; usual value. The procedure: For gene editing experiments performed using a HEK-293 wild-type cell line, mRNA encoding the Cas9 protein (Trilink, catalog number L-7206-20) was transfected into HEK-293 cells one day prior to sgRNA transfection. For mRNA transfection, Lipo-RNA complex was formed by using 500 ng mRNA, 0.9 μL Lipofectamine RNAiMAX in 50 μL total volume, combined with 150 μL DMEM complete medium containing 40K HEK-293 cells. At day 2, sgRNA transfection was performed following the protocol described in the previous section. The wt-sgRNA gene editing INDEL % was usually around 40-50% following this protocol.

A further data set has as its target T1, Cas9 protein (Streptococcus pyogenes serotype M1, UniProt Q99ZW2).
T1 construct: purchased NEB M0646T
Put plainly: In vitro binding assay, Cas9-sgRNA RNP formation (gel shift, native PAGE). As to conditions: 200 nM Cas9, 200 nM sgRNA. A general note: A gel shift assay detects complexes by their altered migration in electrophoresis.

Where “and” joins values, the source holds several entries; their conditions need not be identical. Equal values may be shown once. Entries after “also recorded” stand apart in the source; their conditions may differ.

`CCN(CC)c1ccc2c(C(CCCn3cc(COCCC(=O)NCCCCCCNCc4c[nH]c5nc(N)[nH]c(=O)c45)nn3)OC(=O)NCCCCCCNCc3c[nH]c4nc(N)[nH]c(=O)c34)cc(=O)oc2c1` (stereo not drawn) [preQ1-DEACM-preQ1]: the “wavelength of light that photo-cleaves the linker” value in data set [1] is reported as 405-456 nm.
In the case of “sgRNA-12: sgRNA targeting the sequence between the mCherry and GFP genes of the surrogate reporter, SEQ ID NO:40 (guide GTTCAGGGCTTGACCAACAC; listed as DNA, chemistry not fully specified)”, in data set [2], the “formation of Cas9-sgRNA-DNA ternary complex” value is recorded as “no Cas9-sgRNA-DNA complex was observed”.
For the molecule `COc1cc(C(C)OC(=O)NCCCCCCNCc2c[nH]c3nc(N)[nH]c(=O)c23)c([N+](=O)[O-])cc1OCCCC(=O)NCCOCCOCCOCCOCc1cn(CC(=O)NCCCCCCNCc2c[nH]c3nc(N)[nH]c(=O)c23)nn1` (stereo not drawn) [preQ1-NB-preQ1], the “wavelength of light that photo-cleaves the linker” value in data set [1] was 356-390 nm and 390 nm.

B1: wt-sgRNA: wild-type single-guide RNA, SEQ ID NO:8 (nucleic acid)
guide: CTAATACGACTCACTATANNNNNNNNNNNNNNNNNNNNGTTTTAGAGCTAGAAATAGCAAGTTAAAATAAGGCTAGTCCGTTATCAACTTGAAAAAGTGGCACCGAGTCGGTGCTTTTTT
modifications: target site or template, no part of the molecule; listed as DNA, chemistry not given here
With B1, the “gene editing INDEL %” value is 70-80% with DYRK1A genome locus (HEK-293-Cas9 cell line protocol, usual value) and 40-50% in the data set with HEK-293 cells.

B2: sgRNA-7: sgRNA with two Tag sequences inserted at both the tetraloop and stem loop 2, SEQ ID NO:15 (nucleic acid)
guide: NNNNNNNNNNNNNNNNNNNNGTTTTAGAGCTAGCAGACTGTAAATCTGCTAGCAAGTTAAAATAAGGCTAGTCCGTTATCAACTTGCAGACTGTAAATCTGCAAGTGGCACCGAGTCGGTGC
modifications: listed as DNA, chemistry not given here
The molecule B2 displayed an INDELs in the data set with DYRK1A genome locus (HEK-293 cells, clamped with preQ1-PEG10-preQ1 and gel purified, versus unmodified (linear) form) of 80.7%. Further, the “gene editing activity (INDEL rate) of unmodified sgRNA” value (“gene editing activity (INDEL rate)” for short) in the data set on DYRK1A genome locus is “wild-type level gene editing activity; also recorded: did not compromise gene editing activity”. The “integrity of unlabeled sgRNA under 456 nm irradiation” value in data set [1] (456 nm LED, 3 minutes) is on record as “harmless to the integrity”.

B3: sgRNA-5: sgRNA with 17-nt Tag stem loop substituted for stem loop 3, SEQ ID NO:13 (nucleic acid)
guide: NNNNNNNNNNNNNNNNNNNNGTTTTAGAGCTAGAAATAGCAAGTTAAAATAAGGCTAGTCCGTTATCAACTTGAAAAAGTGGCACCGAGCAGACTGTAAATCTGCTCGGTGC
modifications: listed as DNA, chemistry not given here
Take B3: in the data set on DYRK1A genome locus, the “gene editing activity (INDEL rate)” value is on record as “significantly reduced activity”.

B4: sgRNA-1: sgRNA with 17-nt Tag inserted at the 5′-end, SEQ ID NO:9 (nucleic acid)
guide: GCAGACTGTAAATCTGCTTTTNNNNNNNNNNNNNNNNNNNNGTTTTAGAGCTAGAAATAGCAAGTTAAAATAAGGCTAGTCCGTTATCAACTTGAAAAAGTGGCACCGAGTCGGTGC
modifications: listed as DNA, chemistry not given here
Take B4: the “gene editing activity (INDEL rate)” value in the data set on DYRK1A genome locus is listed as “significantly reduced activity”.

B5: sgRNA-4: sgRNA with 17-nt Tag stem loop substituted for stem loop 2, SEQ ID NO:12 (nucleic acid)
guide: NNNNNNNNNNNNNNNNNNNNGTTTTAGAGCTAGAAATAGCAAGTTAAAATAAGGCTAGTCCGTTATCAACTTGCAGACTGTAAATCTGCAAGTGGCACCGAGTCGGTGC
modifications: listed as DNA, chemistry not given here
As for B5, the “gene editing activity (INDEL rate)” value in the data set on DYRK1A genome locus is “wild-type level gene editing activity; also recorded: retained wild-type level activity”.

B6: sgRNA-9: sgRNA-7 with Tag stems truncated by 4 base pairs, SEQ ID NO:17; targets DYRK1A (nucleic acid)
guide: NNNNNNNNNNNNNNNNNNNNGTTTTAGAGCTAACTGTAAATTAGCAAGTTAAAATAAGGCTAGTCCGTTATCAACTTACTGTAAATAAGTGGCACCGAGTCGGTGC
modifications: chemistry not given here
notes: targets DYRK1A
Consider B6, for which the “formation of Cas9-sgRNA RNP” value with Cas9 protein is recorded as “observed; also recorded: detected in lane 4”. Also, the “formation of Cas9-sgRNA-DNA ternary complex” value in data set [2] was “observed the formation of the Cas9-sgRNA-DNA ternary complex; also recorded: detected in lane 5”.

B7: sgRNA-2: sgRNA with 17-nt Tag stem loop substituted for the tetra loop, SEQ ID NO:10 (nucleic acid)
guide: NNNNNNNNNNNNNNNNNNNNGTTTTAGAGCTAGCAGACTGTAAATCTGCTAGCAAGTTAAAATAAGGCTAGTCCGTTATCAACTTGAAAAAGTGGCACCGAGTCGGTGC
modifications: listed as DNA, chemistry not given here
As to B7, the “gene editing activity (INDEL rate)” value in the data set on DYRK1A genome locus is “wild-type level gene editing activity; also recorded: retained wild-type level activity”.

B8: sgRNA-3: sgRNA with 17-nt Tag stem loop substituted for stem loop 1, SEQ ID NO:11 (nucleic acid)
guide: NNNNNNNNNNNNNNNNNNNNGTTTTAGAGCTAGAAATAGCAAGTTAAAATAAGGCGCAGACTGTAAATCTGCGTCCGTTATCAACTTGAAAAAGTGGCACCGAGTCGGTGC
modifications: listed as DNA, chemistry not given here
On to B8, for which, in the data set on DYRK1A genome locus, the “gene editing activity (INDEL rate)” value is given as “significantly reduced activity”.
